Laboratory results reported in paper PMC9249326 (2022).

Tests used:
[1] = target: T1, 6xHis-tagged human NGF (nerve growth factor) (human, UniProt P01138 19-241); assay: BLI
[2] = target: T1, 6xHis-tagged human NGF (nerve growth …); assay: BLI; remark: listed apart in the source

T1 sequence (P01138 122-241): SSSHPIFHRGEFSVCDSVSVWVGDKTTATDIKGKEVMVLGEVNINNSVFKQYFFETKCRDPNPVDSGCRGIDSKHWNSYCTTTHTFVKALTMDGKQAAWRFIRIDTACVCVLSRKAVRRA

koff [1]: < 1e-07 s⁻¹
Kd [2]: < 1 pM
B1: tanezumab (antibody, V domains shown)
VH: QVQLQESGPGLVKPSETLSLTCTVSGFSLIGYDLNWIRQPPGKGLEWIGIIWGDGTTDYNSAVKSRVTISKDTSKNQFSLKLSSVTAADTAVYYCARGGYWYATSYYFDYWGQGTLVTVSS
VL: DIQMTQSPSSLSASVGDRVTITCRASQSISNNLNWYQQKPGKAPKLLIYYTSRFHSGVPSRFSGSGSGTDFTFTISSLQPEDIATYYCQQEHTLPYTFGQGTKLEIK
